The assay has as its target Todarodes pacificus hemocyanin (Todarodes pacificus). Description: cryo-EM structure; single-particle cryo-EM of purified hemocyanin, 2.9 mg/ml, 100 mM HEPES pH 7.5, 200 mM CaCl2; asymmetric refinement (no symmetry imposed), overall 5.1 Å; model by rigid-body fitting.

The stoichiometry N is a count of units in the complex or per binding partner. Substance “Todarodes pacificus hemocyanin (natural protein)” came in with a stoichiometry N of 10.

Values taken from publication PMC6503924.
